Laboratory results reported in IntAct's records for PubMed 7890747.

B1: Retinoblastoma-associated protein (Homo sapiens), P06400 (parent)
chain: MPPKTPRKTAATAAAAAAEPPAPPPPPPPEEDPEQDSGPEDLPLVRLEFEETEEPDFTALCQKLKIPDHVRERAWLTWEKVSSVDGVLGGYIQKKKELWGICIFIAAVDLDEMSFTFTELQKNIEISVHKFFNLLKEIDTSTKVDNAMSRLLKKYDVLFALFSKLERTCELIYLTQPSSSISTEINSALVLKVSWITFLLAKGEVLQMEDDLVISFQLMLCVLDYFIKLSPPMLLKEPYKTAVIPINGSPRTPRRGQNRSARIAKQLENDTRIIEVLCKEHECNIDEVKNVYFKNFIPFMNSLGLVTSNGLPEVENLSKRYEEIYLKNKDLDARLFLDHDKTLQTDSIDSFETQRTPRKSNLDEEVNVIPPHTPVRTVMNTIQQLMMILNSASDQPSENLISYFNNCTVNPKESILKRVKDIGYIFKEKFAKAVGQGCVEIGSQRYKLGVRLYYRVMESMLKSEEERLSIQNFSKLLNDNIFHMSLLACALEVVMATYSRSTSQNLDSGTDLSFPWILNVLNLKAFDFYKVIESFIKAEGNLTREMIKHLERCEHRIMESLAWLSDSPLFDLIKQSKDREGPTDHLESACPLNLPLQNNHTAADMYLSPVRSPKKKGSTTRVNSTANAETQATSAFQTQKPLKSTSLSLFYKKVYRLAYLRLNTLCERLLSEHPELEHIIWTLFQHTLQNEYELMRDRHLDQIMMCSMYGICKVKNIDLKFKIIVTAYKDLPHAVQETFKRVLIKEEEYDSIIVFYNSVFMQRLKTNILQYASTRPPTLSPIPHIPRSPYKFPSSPLRIPGGNIYISPLKSPYKISEGLPTPTKMTPRSRILVSIGESFGTSEKFQKINQMVCNSDRVLKRSAEGSNPPKPLKKLRFDIEGSDEADGSKHLPGESKFQQKLAEMTSTRTRMQKQKMNDSMDTSNKEEK
partner: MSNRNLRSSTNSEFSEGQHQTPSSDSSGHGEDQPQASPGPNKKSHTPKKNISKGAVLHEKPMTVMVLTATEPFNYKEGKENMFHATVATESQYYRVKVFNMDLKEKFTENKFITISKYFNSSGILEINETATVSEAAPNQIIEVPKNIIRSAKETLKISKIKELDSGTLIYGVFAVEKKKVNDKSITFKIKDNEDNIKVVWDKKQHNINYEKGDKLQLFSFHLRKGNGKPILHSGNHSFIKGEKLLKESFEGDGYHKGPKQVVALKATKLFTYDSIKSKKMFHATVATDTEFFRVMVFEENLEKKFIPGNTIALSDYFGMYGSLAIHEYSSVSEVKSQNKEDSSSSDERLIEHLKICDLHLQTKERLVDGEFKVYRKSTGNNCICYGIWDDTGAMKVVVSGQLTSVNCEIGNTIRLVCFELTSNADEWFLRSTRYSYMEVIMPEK

Variants of: B1
Settings: with ifi2_mouse Ifi202, Q9R002

Variant	effect of a mutation on the interaction
C706F	decreasing interaction
